Blank lines part the entries; values can stand above or below the compound they belong to. Bridge positions count the residues as written; N and C are the ends. Square brackets hold non-standard residues; d marks the D form. Ends that are not written are not given here. Aib = CC(C)(N)C(=O)O
Columns and labels:
[1] = when taken for one year; cited from earlier work
[2] = biological target: T1, human glucagon receptors (Homo sapiens, UniProt P47871); experiment: cAMP activity of glucagon derivatives in CHO cell line transfected with human glucagon receptor (LANCE cAMP kit); type: cell-based; conditions: cAMP EC50 compared with that of native glucagon; CHO cells with human glucagon receptor
T1 construct: a region corresponding to Open Reading Frame (ORF) in the cDNA; expressed in transfected cells
Experimental: PCR was performed using a region corresponding to Open Reading Frame (ORF) in the cDNA (OriGene Technologies, Inc., USA) of human glucagon receptor gene as a template along with the following forward and reverse primers (SEQ ID NOS: 47 and 48, respectively), which include each of the EcoRI and XhoI restriction sites.
The PCR product was cloned into a known animal cell expression vector, x0GC/dhfr, to prepare a recombinant vector x0GC/GCGR.
CHO DG44 cell line cultured in DMEM/F12 (10% FBS) medium was transfected with the recombinant vector x0GC/GCGR using LIPOFECTAMINE®, and cultured in a selection medium containing G418 (1 mg/mL) and methotraxate (10 nM).
Specifically, the transfected cell line was subcultured 3 to 4 times a week, aliquoted into a 384-well plate in an amount of 6×10^3 cell lines/well, and cultured for 24 hours. Native glucagon and glucagon derivatives were suspended in Hank's balanced salt solution (HBSS) buffer containing 0.5 mM of 3-isobutyl-1-methylxanthine (IBMX), 0.1% bovine serum albumin (BSA), and 5 mM 4-(2-hydroxyethyl)-1-piperazineethanesulfonic acid (HEPES) with the culture cells, at concentrations of 200 nM and 1600 nM, respectively, continuously subjected into a 4-fold dilution 10 times, applied to a cAMP assay kit (LANCE cAMP 384 kit, PerkinElmer), and added to the cultured cells, and their fluorescence value was measured.

T1 sequence (P47871 26-477): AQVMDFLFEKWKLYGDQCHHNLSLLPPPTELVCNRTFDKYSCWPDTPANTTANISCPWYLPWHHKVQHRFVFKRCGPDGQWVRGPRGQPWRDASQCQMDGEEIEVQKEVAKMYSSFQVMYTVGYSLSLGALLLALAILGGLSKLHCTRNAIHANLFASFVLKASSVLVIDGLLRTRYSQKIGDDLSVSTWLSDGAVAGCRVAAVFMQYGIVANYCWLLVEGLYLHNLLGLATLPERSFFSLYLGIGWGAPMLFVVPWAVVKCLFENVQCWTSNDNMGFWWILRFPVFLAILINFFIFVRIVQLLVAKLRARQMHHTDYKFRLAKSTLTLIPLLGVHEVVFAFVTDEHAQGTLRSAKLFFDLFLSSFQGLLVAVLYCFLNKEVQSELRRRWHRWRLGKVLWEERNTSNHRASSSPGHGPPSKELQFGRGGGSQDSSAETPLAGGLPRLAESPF

- In vitro Activity (Relative Activity of SEQ ID NO: 1, %) [2]: 225.5%
Compound: YXQGTFTSDYSKYLDERRAKEFVQWLMNTC (Y[Aib]QGTFTSDYSKYLDERRAKEFVQWLMNTC; bridge 16-20) [SEQ ID NO: 37, glucagon derivative, X = Aib]

- In vitro Activity (Relative Activity of SEQ ID NO: 1, %) [2]: <0.1%
Compound: YXQGTFTSDYSKYLDSCDADDFVVWLINT (Y[Aib]QGTFTSDYSKYLDSCDADDFVVWLINT) [SEQ ID NO: 10, glucagon derivative, X = Aib]

- In vitro Activity (Relative Activity of SEQ ID NO: 1, %) [2]: 3.7%
Compound: YXQGTFVSDCSKYLDERRAKDFVQWLMNT (Y[Aib]QGTFVSDCSKYLDERRAKDFVQWLMNT; bridge 16-20) [SEQ ID NO: 39, glucagon derivative, X = Aib]

- In vitro Activity (Relative Activity of SEQ ID NO: 1, %) [2]: 93.6%
Compound: YXQGTFVSDYSKYLDECRAKDFVQWLMNT (Y[Aib]QGTFVSDYSKYLDECRAKDFVQWLMNT; bridge 16-20) [SEQ ID NO: 27, glucagon derivative, X = Aib]

- In vitro Activity (Relative Activity of SEQ ID NO: 1, %) [2]: 40.8%
Compound: YXQGTFVSDYSKYLDERRAKDFVQWLMNTC (Y[Aib]QGTFVSDYSKYLDERRAKDFVQWLMNTC; bridge 16-20) [SEQ ID NO: 40, glucagon derivative, X = Aib]

Continued, compound first:

Compound: CCCCCCCCCCC[C@@H](C[C@@H]1OC(=O)[C@H]1CCCCCC)OC(=O)[C@H](CC(C)C)NC=O [ORLISTAT]
- weight loss [1]: about 4 kg

Compound: YXQGTFTSDYSKYLDSCDAQDFVQWLINT (Y[Aib]QGTFTSDYSKYLDSCDAQDFVQWLINT) [SEQ ID NO: 8, glucagon derivative, X = Aib]
- In vitro Activity (Relative Activity of SEQ ID NO: 1, %) [2]: <0.1%

Compound: YXQGTFTSDYSKYLDSCDAQDFVVWLINT (Y[Aib]QGTFTSDYSKYLDSCDAQDFVVWLINT) [SEQ ID NO: 9, glucagon derivative, X = Aib]
- In vitro Activity (Relative Activity of SEQ ID NO: 1, %) [2]: <0.1%

Compound: YXQGTFTSDYSKYLDSRRACDFRLWLMNT (Y[Aib]QGTFTSDYSKYLDSRRACDFRLWLMNT) [SEQ ID NO: 18, glucagon derivative, X = Aib]
- In vitro Activity (Relative Activity of SEQ ID NO: 1, %) [2]: <0.1%

Compound: YXQGTFTSDYSKYLDSRRAQDFVQWLMNT (Aib at position 2; glucagon derivative; (2) Xaa is aminoisobutyric acid (Aib)) [SEQ ID NO: 33, glucagon derivative, X = Aib]
- In vitro Activity (Relative Activity of SEQ ID NO: 1, %) [2]: 108.2%

Compound: YXQGTFTSDYSKYLDSRRAQDFVQWLMNTC (Aib at position 2; glucagon derivative; (2) Xaa is aminoisobutyric acid (Aib)) [SEQ ID NO: 44, glucagon derivative, X = Aib]
- In vitro Activity (Relative Activity of SEQ ID NO: 1, %) [2]: 75.4%

— patent publication US11667688B2, “Glucagon derivative and a composition comprising a long acting conjugate of the same” (HANMI PHARM. CO., LTD., priority 2015, dated 2023)
